The record followed here is article PMC7725843, “Structural and biochemical analyses of an aminoglycoside 2′-N-acetyltransferase from Mycolicibacterium smegmatis” (Scientific Reports, 2020).

Common to all, as to assay: purified protein
What all share (type): biochemical, Mycolicibacterium smegmatis

Series [1] concerns CC(=O)SCCNC(=O)CCNC(=O)[C@H](O)C(C)(C)COP(=O)(O)OP(=O)(O)OC[C@H]1O[C@@H](n2cnc3c(N)ncnc32)[C@H](O)[C@@H]1OP(=O)(O)O. The conditions noted are these: aminoglycoside co-substrate not told, 50 mM MES pH 6.5, 200 μM DTNB, 25 °C.
The test system of series [2] is NC[C@@H]1O[C@H](O[C@H]2[C@@H](O)[C@H](O[C@@H]3[C@@H](O)[C@H](N)C[C@H](N)[C@H]3O[C@H]3O[C@H](CO)[C@@H](O)[C@H](O)[C@H]3N)O[C@@H]2CO)[C@H](N)[C@@H](O)[C@@H]1O. The conditions noted are these: 300 μM acetyl-CoA, 50 mM MES pH 6.5, 200 μM DTNB, 25 °C.
Series [3] relates to NC[C@H]1O[C@H](O[C@H]2[C@H](O)[C@@H](O[C@H]3O[C@H](CO)[C@@H](O)[C@H](N)[C@H]3O)[C@H](N)C[C@@H]2N)[C@H](N)C[C@@H]1O. The conditions noted are these: 300 μM acetyl-CoA, 50 mM MES pH 6.5, 200 μM DTNB, 25 °C.
For series [4], the system named is NC[C@H]1O[C@H](O[C@H]2[C@H](O)[C@@H](O[C@H]3O[C@H](CO)[C@@H](O)[C@H](N)[C@H]3O)[C@H](N)C[C@@H]2N)[C@H](O)[C@@H](O)[C@@H]1O. The conditions noted are these: 300 μM acetyl-CoA, 50 mM MES pH 6.5, 200 μM DTNB, 25 °C.

For the substance “AAC(2′)-Id (Mycolicibacterium smegmatis MC2 155)”, the kcat in series [1] is 0.34 ± 0.03 s⁻¹; in series [2], 1.08 ± 0.06 s⁻¹; in series [3], 3.34 ± 0.1 s⁻¹; in series [4], 0.13 ± 0.03 s⁻¹. Moreover, the kcat/Km in series [1] stood at 5670 ± 1620 M⁻¹ s⁻¹; in series [2] it was 10400 ± 2100 M⁻¹ s⁻¹; in series [3], 18000 ± 1600 M⁻¹ s⁻¹; in series [4], 817 ± 620 M⁻¹ s⁻¹. In addition, the Km entry in series [2] is reported as “(1.04 ± 0.14) × 10^2 μM”; in series [3] it was “(1.86 ± 0.10) × 10^2 μM”; in series [4], “(1.67 ± 0.84) × 10^2 μM”.

What is called kcat is the number of substrate molecules converted per active site and unit of time at saturation. What is called kcat/Km is the second-order rate constant that governs catalysis at low substrate concentration.
